In this data set the test system is patients treated with enfortumab vedotin. Description: Phase 1 study ASG-22CE-13-2 of enfortumab vedotin: dermatologic and corneal adverse events. Type of data set: in vivo, human. The text has this: In the phase 1 study (Study ASG-22CE-13-2), rash and similar dermatologic AEs were common among patients treated with enfortumab vedotin, and were seen more frequently at the highest dose. Although the exact etiology of dermatologic toxicities associated with enfortumab vedotin is unclear at this time, due to the expression of Nectin-4 in the skin, rash may be an on-target toxicity. The most common dermatological AEs reported in ASG-22CE-13-2 were drug eruption, rash, skin exfoliation, skin pigmentation disorder, and rash maculo-papular. Most occurred during Cycle 1, and some were associated with pruritus. Almost all were mild, with the exception of two events of rash reported as Grade 3 in the 1 mg/kg dose group. […] Mild rash related to enfortumab vedotin should be treated using local supportive care as needed. Topical corticosteroids have been used along with antihistamines for pruritus as needed.
Slit lamp examinations will be conducted on at least the first 60 enrolled patients (from Cohorts 1 and/or 2) on Cycle 2 Day 22 (±1 week) and Cycle 6 Day 22 (±1 week). If corneal AEs are observed in <15% of the first 60 enrolled patients and if the events are generally low grade or asymptomatic, the IDMC may make a recommendation to cease Cycle 2 Day 22 and/or Cycle 6 Day 22 slit lamp exams for the remaining patients if warranted based on review of the cumulative ocular safety data. Based on the results from the Phase 1 study (Study ASG-22CE-13-2), as of the data cut-off date of 14 Nov. 2016, there were 3 patients who reported experiencing corneal adverse events out of 33 patients on […] of enfortumab vedotin. Assuming an event rate of 9% (3/33), with a sample size of 60, the probability of observing >3 events (5%) is 80.0% and the probability of observing <9 events (15%) is 91.2%. If the event rate is higher, the probability of observing <9 events is decreased. For example, if the event rate is 20%, the probability of observing <9 events is decreased to 12.7%. Based on the analysis described above and the review of cumulative ocular safety data, the IDMC recommended that the Cycle 2 Day 22 and Cycle 6 Day 22 slit lamp exams be discontinued in July 2018 and August 2019, respectively.

In the case of “enfortumab vedotin: Nectin-4 directed ADC: fully human anti-nectin-4 IgG1 kappa antibody (AGS-22C3) conjugated to MMAE via protease-cleavable maleimidocaproyl valine-citrulline linker”, the “dermatological AEs that required discontinuation of study drug” value is reported as “None”. In addition, for the setting “1 mg/kg dose group”, the “events of rash reported as Grade 3” value is listed as “two”. Also, for the setting “1.25 mg/kg”, the “corneal adverse event rate (3/33)” value is recorded as 9% and the “events of Grade 1 papular rash that required a dose reduction” value is recorded as “one”. Under “out of 33 patients on 1.25 mg/kg, data cut-off 14 Nov. 2016”, the “patients who reported experiencing corneal adverse events” value is 3.

The values are drawn from patent US20230364254A1, “METHODS FOR TREATING CANCERS WITH ANTIBODY DRUG CONJUGATES (ADC) THAT BIND TO 191P4D12 PROTEINS” (priority 2020, published 2023).
